Measured values: patent US20020197702A1 (IDUN PHARMACEUTICALS, published 2002)
Ends that are not written are not given here. * marks the point of attachment. Cbz = O=C(OCc1ccccc1)*

T1: r-caspase-3 (His)6 (human, UniProt P42574 29-175; P42574 176-277)
T1 sequence 1: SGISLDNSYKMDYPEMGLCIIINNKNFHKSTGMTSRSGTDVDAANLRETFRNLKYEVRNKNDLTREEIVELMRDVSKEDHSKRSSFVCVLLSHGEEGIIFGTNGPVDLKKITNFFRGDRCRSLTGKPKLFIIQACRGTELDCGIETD
T1 sequence 2: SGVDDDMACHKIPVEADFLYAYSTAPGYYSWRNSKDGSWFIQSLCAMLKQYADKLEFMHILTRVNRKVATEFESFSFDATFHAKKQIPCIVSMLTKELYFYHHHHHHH

T2: affinity purified membrane derived caspase-3 from 697 cell heavy membranes (human, UniProt P42574 14-175; P42574 176-277, limits assumed)
T2 chain 1: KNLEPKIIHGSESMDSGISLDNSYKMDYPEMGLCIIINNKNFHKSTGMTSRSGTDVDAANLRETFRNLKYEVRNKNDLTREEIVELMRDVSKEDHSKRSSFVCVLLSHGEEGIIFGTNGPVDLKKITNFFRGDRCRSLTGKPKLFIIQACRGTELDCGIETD
T2 chain 2: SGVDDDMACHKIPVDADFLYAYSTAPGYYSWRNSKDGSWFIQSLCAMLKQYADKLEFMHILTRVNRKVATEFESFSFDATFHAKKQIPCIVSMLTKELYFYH

T3: 697-neo HM (spontaneous activity) caspase (human, UniProt P42574 14-175, limits assumed)
T3 sequence 1: T2 chain 1
T3 sequence 2: T2 chain 2

T4: 697 Bcl-2 HM (caspase-1 treated) caspase (human, UniProt P42574 14-175; P42574 176-277, limits assumed)
T4 chain 1: T2 chain 1
T4 chain 2: T2 chain 2

T5: 697-neo HM (caspase-1 treated) caspase (human, UniProt P42574 14-175; P42574 176-277, limits assumed)
T5 chain 1: T2 chain 1
T5 chain 2: T2 chain 2


Legend:
Test in all cases: cell-based or functional assay
r-caspase-3 (His)6 [1] = biological target: T1, r-caspase-3 (His)6
[2] = biological target: T2, affinity purified membrane derived …
[3] = biological target: cortical cell HM (caspase-1 treated) caspase (mouse)
[4] = biological target: MN9D HM (caspase-1 treated) caspase (mouse)
r-caspase-3 (His)6 [5] = biological target: T1, r-caspase-3 (His)6; remark: listed apart in the source
[6] = biological target: T3, 697-neo HM (spontaneous activity) …
[7] = biological target: T4, 697 Bcl-2 HM (caspase-1 treated) caspase
[8] = biological target: T5, 697-neo HM (caspase-1 treated) caspase

Row | Binder | IC50, inhibition of DEVD-AMC cleavage activity (r-caspase-3 (His)6 [1]) | IC50, inhibition of DEVD-AMC cleavage activity [2] | IC50, inhibition of DEVD-amc cleavage [3] | IC50, inhibition of DEVD-amc cleavage [4] | IC50, inhibition of DEVD-amc cleavage (r-caspase-3 (His)6 [5]) | IC50, inhibition of DEVD-amc cleavage [6] | IC50, inhibition of DEVD-amc cleavage [7] | IC50, inhibition of DEVD-amc cleavage [8]
1 | VEID-aldehyde [VEIDald] | 32 nM | 34 nM |  |  |  |  |  | 
2 | DEVD-aldehyde [DEVD-ald] | 1 nM | 1 nM | 1 nM | 0.72 nM | 1 nM |  |  | 

Second part, the binder after the results:

Row | IC50, inhibition of DEVD-AMC cleavage activity (r-caspase-3 (His)6 [1]) | IC50, inhibition of DEVD-AMC cleavage activity [2] | IC50, inhibition of DEVD-amc cleavage [3] | IC50, inhibition of DEVD-amc cleavage [4] | IC50, inhibition of DEVD-amc cleavage (r-caspase-3 (His)6 [5]) | IC50, inhibition of DEVD-amc cleavage [6] | IC50, inhibition of DEVD-amc cleavage [7] | IC50, inhibition of DEVD-amc cleavage [8] | Binder
3 | 24 nM | 32 nM |  |  |  |  |  |  | Cbz-Glu-Val-Asp-aldehyde (SMILES CC(C)[C@H](NC(=O)[C@H](CCC(=O)O)NC(=O)OCc1ccccc1)C(=O)N[C@H](C=O)CC(=O)O) [ZEVDald]
4 |  |  | > 10000 nM | > 10000 nM | > 10000 nM |  |  |  | Ac-YVAD-aldehyde [YVAD-ald]
5 | 1.1 nM | 4.7 nM | 2.3 nM | 2.5 nM | 1.5 nM | 3.4 nM | 3.6 nM | 4.5 nM | DFLD-aldehyde [DFLD-ald]
